Earlier results as cited in publication PMC9180016.

Columns and labels:
p66Shc (Homo sapiens) = p66Shc (Homo sapiens) (UniProt P29353)
cytochrome c = cytochrome c (UniProt P99999)
UniProt P99999, sequence (P99999 2-105): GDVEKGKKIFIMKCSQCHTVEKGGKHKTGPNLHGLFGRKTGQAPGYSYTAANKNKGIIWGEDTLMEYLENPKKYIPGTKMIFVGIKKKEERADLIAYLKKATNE

Ki (cytochrome c) [µM]	Substance	Kd (p66Shc (Homo sapiens)) [µM]
	Mortalin (from UniProt P38646)	0.858
1.43	p66Shc (from UniProt P29353)	
